Reference: the supplement of paper PMC9876800

Test system: peptide library, one residue held at a place counted from the S/T acceptor
Assay: relative phosphorylation of the sub-library (ratio to the mean residue at this position); higher = residue favoured
Procedure, shortened: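 Spots on streptavidin membranes were phosphorimaged and quantified by densitometry to measure phosphorylation of biotinylated degenerate peptide sub-libraries by purified recombinant kinases, human or orthologue constructs. The reactions ran in 384-well plates for 90 min under kinase-specific conditions, with peptides at 50 μM and 50 μM ATP spiked with γ-32P-ATP. Relative sub-library phosphorylation is the ratio to the mean residue at that position.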

Sequence of STK16, construct: Full length, human (O75716 whole entry, looked up): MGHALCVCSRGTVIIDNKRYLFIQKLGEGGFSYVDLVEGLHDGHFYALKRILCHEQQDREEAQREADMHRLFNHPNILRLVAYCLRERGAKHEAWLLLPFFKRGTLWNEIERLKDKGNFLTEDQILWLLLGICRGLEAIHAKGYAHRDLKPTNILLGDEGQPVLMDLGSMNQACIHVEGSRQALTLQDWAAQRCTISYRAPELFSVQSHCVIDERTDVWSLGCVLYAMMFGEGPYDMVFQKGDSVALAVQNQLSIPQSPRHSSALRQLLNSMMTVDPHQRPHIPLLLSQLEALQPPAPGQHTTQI
Sequence of RPS6KA1, construct: Full length, human (Q15418 whole entry, looked up): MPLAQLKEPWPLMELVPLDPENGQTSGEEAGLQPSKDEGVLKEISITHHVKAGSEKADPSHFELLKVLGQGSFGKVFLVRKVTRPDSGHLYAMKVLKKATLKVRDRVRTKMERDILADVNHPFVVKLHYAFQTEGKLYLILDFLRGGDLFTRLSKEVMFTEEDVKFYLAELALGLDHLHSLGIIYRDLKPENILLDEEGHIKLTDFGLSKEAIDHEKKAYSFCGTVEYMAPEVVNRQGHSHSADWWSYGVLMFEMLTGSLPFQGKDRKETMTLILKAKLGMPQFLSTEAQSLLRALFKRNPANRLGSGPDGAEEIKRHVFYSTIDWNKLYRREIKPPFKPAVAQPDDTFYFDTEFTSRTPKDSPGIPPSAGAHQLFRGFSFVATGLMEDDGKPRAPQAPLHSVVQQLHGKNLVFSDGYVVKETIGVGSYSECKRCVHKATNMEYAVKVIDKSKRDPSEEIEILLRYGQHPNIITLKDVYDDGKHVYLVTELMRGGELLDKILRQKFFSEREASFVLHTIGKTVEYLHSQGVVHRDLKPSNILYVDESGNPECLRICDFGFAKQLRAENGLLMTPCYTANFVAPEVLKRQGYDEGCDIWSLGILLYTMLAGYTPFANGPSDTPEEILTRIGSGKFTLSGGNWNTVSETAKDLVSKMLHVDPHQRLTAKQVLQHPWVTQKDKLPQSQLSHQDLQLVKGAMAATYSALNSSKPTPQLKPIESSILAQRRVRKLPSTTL
Sequence of STK32B, construct: Full length, human (Q9NY57 whole entry, looked up): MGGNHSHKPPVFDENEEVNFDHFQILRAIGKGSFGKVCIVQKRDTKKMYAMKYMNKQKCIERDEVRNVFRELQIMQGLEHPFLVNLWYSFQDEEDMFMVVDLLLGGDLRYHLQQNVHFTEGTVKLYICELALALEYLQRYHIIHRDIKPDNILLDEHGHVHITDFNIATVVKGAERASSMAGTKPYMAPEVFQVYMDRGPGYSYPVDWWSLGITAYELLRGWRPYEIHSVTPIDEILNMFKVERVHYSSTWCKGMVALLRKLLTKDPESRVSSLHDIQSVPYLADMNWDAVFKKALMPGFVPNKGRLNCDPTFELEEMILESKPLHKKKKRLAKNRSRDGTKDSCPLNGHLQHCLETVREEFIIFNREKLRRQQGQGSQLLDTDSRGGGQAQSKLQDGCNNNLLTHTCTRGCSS
Sequence of RPS6KB2, construct: Full length, human (Q9UBS0 whole entry, looked up): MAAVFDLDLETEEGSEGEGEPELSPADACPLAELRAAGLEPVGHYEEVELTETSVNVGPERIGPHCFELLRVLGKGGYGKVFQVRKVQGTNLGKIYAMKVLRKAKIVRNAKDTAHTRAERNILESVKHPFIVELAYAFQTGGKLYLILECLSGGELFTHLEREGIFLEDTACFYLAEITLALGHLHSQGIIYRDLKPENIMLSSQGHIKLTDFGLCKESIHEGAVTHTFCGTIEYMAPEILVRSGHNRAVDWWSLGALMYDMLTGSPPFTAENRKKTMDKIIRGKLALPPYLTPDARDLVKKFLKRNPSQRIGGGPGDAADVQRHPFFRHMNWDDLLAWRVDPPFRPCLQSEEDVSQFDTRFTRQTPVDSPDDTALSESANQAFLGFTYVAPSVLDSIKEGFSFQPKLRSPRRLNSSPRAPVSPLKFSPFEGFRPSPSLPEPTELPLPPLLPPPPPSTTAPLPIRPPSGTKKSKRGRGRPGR

RPS6KA1, construct: Full length, human (from UniProt Q15418)
relative phosphorylation
Settings	at +1	at +2	at +3	at +4	at -1	at -2	at -3	at -4	at -5
A fixed	0.899	1.02	0.983	0.839	0.926	0.75	0.694	1.2	0.916
D fixed	0.459	0.887	1.1	1.25	0.593	0.724	0.524	0.574	0.439
E fixed	0.784	0.691	1.13	1.03	0.408	0.614	0.424	0.703	0.364
F fixed	1.09	0.767	1	0.816	0.796	0.684	0.365	0.817	0.822
G fixed	0.654	0.939	1.08	0.985	1.19	1.2	0.737	1.22	0.977
H fixed	1.15	1.55	1.24	1.05	1.06	1.14	0.549	0.857	0.935
I fixed	1.3	1.05	0.853	0.76	0.404	0.546	0.331	0.931	0.849
K fixed	0.881	0.77	0.686	1.14	1.21	1.86	1.32	1.63	1.84
L fixed	0.969	0.816	1.05	0.785	0.942	1.14	0.388	0.895	1.18
M fixed	1.1	0.774	0.93	0.791	1.04	0.897	0.487	1.05	0.72
N fixed	1.02	1.04	0.822	1.01	1.14	0.732	0.506	0.722	0.67
P fixed	0.625	0.615	0.914	1.47	2.71	0.581	0.76	0.979	0.993
Q fixed	1.39	0.817	0.94	1.21	0.997	1.15	0.538	0.83	0.696
R fixed	1.07	1.2	0.875	0.914	1.25	3.29	8.19	2.05	2.91
V fixed	1.62	1.14	0.801	0.819	0.592	0.441	0.315	0.79	0.75
W fixed	0.884	1.16	1.34	1.16	0.739	0.597	0.482	0.978	1.1
Y fixed	1.1	1.77	1.26	0.969	1.01	0.649	0.39	0.779	0.841
pThr fixed	1.51	0.917	1.17	1.95	0.284	0.293	0.348	0.573	0.527
pTyr fixed	1.32	0.957	1.59	1.17	0.522	0.33	0.332	0.413	0.526

RPS6KB2, construct: Full length, human (from UniProt Q9UBS0)
relative phosphorylation
Settings	at +1	at +2	at +3	at +4	at -1	at -2	at -3	at -4	at -5
A fixed	0.79	1.22	1.17	1	0.797	0.703	0.597	0.963	0.777
D fixed	0.72	0.659	0.823	1.07	1.08	0.468	0.415	0.699	0.634
E fixed	1.07	0.594	0.891	0.933	0.764	0.467	0.386	0.709	0.569
F fixed	1.32	0.706	0.912	0.863	0.822	0.626	0.459	0.705	0.611
G fixed	0.854	1.27	1.14	1.2	0.76	0.701	0.554	1.07	0.961
H fixed	0.971	1.58	1.18	1.17	1.01	1.11	0.903	1.05	1
I fixed	1.22	0.745	0.82	0.733	0.734	0.552	0.421	0.737	0.571
K fixed	0.989	1.09	1.08	1.19	1.63	2.59	2.04	1.97	2.19
L fixed	0.979	0.781	0.897	0.774	0.835	0.866	0.475	0.647	0.584
M fixed	1.11	0.961	0.869	0.849	0.903	0.702	0.453	0.77	0.566
N fixed	1.06	1.51	1.06	1.03	1.59	0.803	0.625	0.938	0.784
P fixed	0.614	0.914	1.05	1.25	0.931	0.548	0.55	0.937	0.834
Q fixed	1.13	1.02	1.17	1.1	1.03	0.882	0.731	1.08	0.945
R fixed	0.954	1.52	1.01	0.973	1.44	3.95	6.7	2.31	3.84
V fixed	1.09	0.88	0.849	0.747	0.855	0.58	0.425	0.794	0.607
W fixed	0.979	0.776	1.1	1.16	0.774	0.674	0.697	0.828	0.734
Y fixed	1.15	0.778	0.98	0.952	1.03	0.772	0.573	0.789	0.789
pThr fixed	1.17	0.868	0.923	1.34	0.624	0.484	0.446	0.703	0.596
pTyr fixed	1.39	0.96	1.2	1.32	1.8	0.552	0.473	0.767	0.779

STK16, construct: Full length, human (from UniProt O75716)
relative phosphorylation
Settings	at +1	at +2	at +3	at +4	at -1	at -2	at -3	at -4	at -5
A fixed	0.727	2.01	1.04	1	0.863	1.44	0.99	1.12	1.1
D fixed	0.32	0.668	0.537	0.519	0.334	0.409	0.474	0.885	0.694
E fixed	0.182	0.604	0.496	0.566	0.273	0.36	0.491	0.674	0.581
F fixed	0.531	0.95	0.956	0.888	0.833	0.758	0.672	1.12	0.96
G fixed	4.33	1.26	1.66	1.23	2.16	0.83	0.808	1.13	0.953
H fixed	0.804	0.887	0.982	1.07	2.29	0.75	0.824	0.94	1.06
I fixed	0.534	0.991	0.898	0.982	0.526	1.23	1.98	0.894	0.914
K fixed	1.08	0.844	1.36	1.16	1.4	0.569	0.854	1.06	0.99
L fixed	0.461	0.915	0.81	0.835	0.656	1.03	0.894	0.952	0.868
M fixed	0.447	0.822	0.881	0.875	0.815	1.04	0.85	0.961	0.989
N fixed	2.13	0.787	0.897	0.746	0.737	0.509	0.701	0.798	0.875
P fixed	0.801	1.03	1.03	1.1	1.64	4.27	2.6	1.43	1.54
Q fixed	0.522	1.19	0.974	0.999	0.71	0.676	0.829	0.849	0.96
R fixed	2.08	1.06	1.73	1.31	1.19	0.959	0.963	1.11	1.49
V fixed	0.518	1.06	0.922	0.845	0.677	0.88	1.5	0.963	0.796
W fixed	0.999	0.849	0.853	1.59	0.813	0.601	0.74	1.09	1.13
Y fixed	0.534	1.08	0.98	1.29	1.09	0.695	0.834	1.02	1.1
pThr fixed	0.289	0.402	0.518	0.44	0.352	2.01	0.864	0.838	0.845
pTyr fixed	0.242	0.36	0.605	0.544	0.276	0.401	0.468	0.658	0.65

STK32B, construct: Full length, human (from UniProt Q9NY57)
relative phosphorylation
Settings	at +1	at +2	at +3	at +4	at -1	at -2	at -3	at -4	at -5
A fixed	0.577	0.493	0.744	0.79	0.938	0.933	0.994	1.1	1.08
D fixed	0.363	0.882	0.608	0.539	0.556	0.56	1.54	1.15	1.08
E fixed	0.932	1.81	0.743	0.769	0.726	0.921	1.35	1.59	0.878
F fixed	2.31	0.995	1.37	0.745	0.832	1.35	0.754	0.804	0.938
G fixed	0.389	0.269	0.43	0.849	1.26	0.739	0.909	1.24	1.19
H fixed	0.784	1.61	1.11	1.16	0.992	1.22	0.871	0.975	1.14
I fixed	1.91	0.897	1.47	1.04	0.557	0.77	0.702	0.66	0.798
K fixed	0.75	0.796	1.1	1.84	1.32	0.656	1.05	1.1	1.35
L fixed	1.1	0.767	1.29	0.812	0.884	1.7	0.77	0.744	0.78
M fixed	2.15	0.934	1.17	0.898	1.15	1.2	0.776	0.906	0.797
N fixed	0.545	0.704	0.659	0.828	0.878	1.02	0.941	0.983	1.03
P fixed	0.259	0.214	0.356	1.13	1.46	1.23	1.03	1.1	0.987
Q fixed	1.01	0.86	0.826	0.864	1.03	0.88	0.753	0.88	0.88
R fixed	0.939	1.01	1.05	1.87	2.02	1.02	2.17	1.32	1.39
V fixed	1.26	0.765	1.4	0.742	0.593	0.797	0.821	0.764	0.736
W fixed	0.713	1.39	1.41	1.14	0.634	0.755	0.65	0.784	0.844
Y fixed	1	2.61	1.24	0.989	1.16	1.25	0.915	0.903	1.11
pThr fixed	1.12	2.27	3.42	1.86	1.03	1.74	9.83	2.88	1.67
pTyr fixed	2.4	63.9	6.44	10.7	1.72	7.31	2.44	1.38	1.77
